Measurements reported in the RNAGym collection of RNA variant scans (doi:10.1101/gr.219683.116).

B1: mRNA-splicing (parent)
chain: AGUUGCUGCUGGGAGCUCCAGCACAGUGAAAUGGACAGAAGGGCAGAGCAA

Variants of: B1
Test: exon inclusion enrichment index; higher = more inclusion; WT1 exon 5 minigene, HEK293

Row | Variant | exon inclusion enrichment index
1 | G5A U7C G8A U10C C22A A23U | 2.17
2 | G5A U7C G8A U10C C22G | 3.37
3 | G5A U7C G8A U10C C22G A23C | 1.24
4 | G5A U7C G8A U10C C22G A23G | 1.4
5 | G5A U7C G8A U10C C22G A23U | 0.522
6 | G5A U7C G8A U10C C22U | 2.11
7 | G5A U7C G8A U10C C22U A23C | 1.42
8 | G5A U7C G8A U10C C22U A23G | 2.69
9 | G5A U7C G8A U10C C22U A23U | 1.53
10 | G5A U7C G8A U10C C24A | 2.26
11 | G5A U7C G8A U10C C24A A25C | 3.6
12 | G5A U7C G8A U10C C24A A25G | 2.4
13 | G5A U7C G8A U10C C24A A25U | 2.06
14 | G5A U7C G8A U10C C24G | 2.53
15 | G5A U7C G8A U10C C24G A25C | 3.54
16 | G5A U7C G8A U10C C24G A25G | 1.35
17 | G5A U7C G8A U10C C24G A25U | 2.8
18 | G5A U7C G8A U10C C24U | 0.763
19 | G5A U7C G8A U10C C24U A25C | 3.55
20 | G5A U7C G8A U10C C24U A25G | 3.39
21 | G5A U7C G8A U10C C24U A25U | 2.36

Row | Variant | exon inclusion enrichment index
22 | G5A U7C G8A U10C C36A | 1.85
23 | G5A U7C G8A U10C C36A A37C | 2.61
24 | G5A U7C G8A U10C C36A A37G | 1.06
25 | G5A U7C G8A U10C C36A A37U | 1.07
26 | G5A U7C G8A U10C C36G | 1.55
27 | G5A U7C G8A U10C C36G A37C | 0.667
28 | G5A U7C G8A U10C C36G A37G | 0.405
29 | G5A U7C G8A U10C C36G A37U | 1.08
30 | G5A U7C G8A U10C C36U | 0.719
31 | G5A U7C G8A U10C C36U A37C | 1.63
32 | G5A U7C G8A U10C C36U A37G | 2.16
33 | G5A U7C G8A U10C C36U A37U | 1.38
34 | G5A U7C G8A U10C C44A | 3.82
35 | G5A U7C G8A U10C C44A A45C | 3.95
36 | G5A U7C G8A U10C C44A A45G | 3.75
37 | G5A U7C G8A U10C C44A A45U | 4.02
38 | G5A U7C G8A U10C C44G | 3.26
39 | G5A U7C G8A U10C C44G A45C | 3.34
40 | G5A U7C G8A U10C C44G A45G | 0.315
41 | G5A U7C G8A U10C C44G A45U | 1.92
42 | G5A U7C G8A U10C C44U | 0.581

Row | Variant | exon inclusion enrichment index
43 | G5A U7C G8A U10C C44U A45C | 3.16
44 | G5A U7C G8A U10C C44U A45G | 1.53
45 | G5A U7C G8A U10C C44U A45U | 1.51
46 | G5A U7C G8A U10C G11A | 1.34
47 | G5A U7C G8A U10C G11A G12A | 0.934
48 | G5A U7C G8A U10C G11A G12C | 0.699
49 | G5A U7C G8A U10C G11A G12U | 0.486
50 | G5A U7C G8A U10C G11C | 1.96
51 | G5A U7C G8A U10C G11C G12A | 0.351
52 | G5A U7C G8A U10C G11C G12C | 0.415
53 | G5A U7C G8A U10C G11C G12U | 0.353
54 | G5A U7C G8A U10C G11U | 1.6
55 | G5A U7C G8A U10C G11U G12A | 0.117
56 | G5A U7C G8A U10C G11U G12C | 0.738
57 | G5A U7C G8A U10C G11U G12U | 0.337
58 | G5A U7C G8A U10C G12A | 1.48
59 | G5A U7C G8A U10C G12A G13A | 0.689
60 | G5A U7C G8A U10C G12A G13C | 0.711
61 | G5A U7C G8A U10C G12A G13U | 0.132
62 | G5A U7C G8A U10C G12C | 1.57
63 | G5A U7C G8A U10C G12C G13A | 0.95

Row | Variant | exon inclusion enrichment index
64 | G5A U7C G8A U10C G12C G13C | 0.397
65 | G5A U7C G8A U10C G12C G13U | 0.139
66 | G5A U7C G8A U10C G12U | 1.13
67 | G5A U7C G8A U10C G12U G13A | 0.238
68 | G5A U7C G8A U10C G12U G13C | 0.477
69 | G5A U7C G8A U10C G12U G13U | 0.053
70 | G5A U7C G8A U10C G13A | 2.41
71 | G5A U7C G8A U10C G13A A14C | 2.98
72 | G5A U7C G8A U10C G13A A14G | 2.19
73 | G5A U7C G8A U10C G13A A14U | 2.87
74 | G5A U7C G8A U10C G13C | 1.1
75 | G5A U7C G8A U10C G13C A14C | 1.19
76 | G5A U7C G8A U10C G13C A14G | 1.71
77 | G5A U7C G8A U10C G13C A14U | 1.45
78 | G5A U7C G8A U10C G13U | 0.0615
79 | G5A U7C G8A U10C G13U A14C | 1.41
80 | G5A U7C G8A U10C G13U A14G | 0.535
81 | G5A U7C G8A U10C G13U A14U | 1.08
82 | G5A U7C G8A U10C G15A | 2.02
83 | G5A U7C G8A U10C G15A C16A | 1.46
